Key:
Lysozyme (chicken) = Lysozyme (chicken) (chicken, UniProt P00698 19-147); experiment: MSD specificity profiling, coated protein
Method: (§1) For this specificity profiling test the different proteins and controls were coated on two 384-well MSD plates with a concentration of 1 μg/ml at 4° C. over night. Plates were blocked with BSA and washed three times with PBS with 0.05% (v/v) Tween 20. Antibody samples were diluted to 100 nM and 10 nM in assay buffer (PBS with 0.5% (w/v) BSA, 0.05% (v/v) Tween 20). […] Samples and controls were incubated for three hours at room temperature. The plates were washed three times and 30 μl detection antibody (ECL-labeled anti-human Fab) were added per well and incubated for 1 h. After washing, MSD Read Buffer T with surfactant was added and electrochemiluminescence signals were detected using a Sector Imager 6000 (Meso Scale Discovery, Gaithersburg, Md., USA).

Pepsinogen (pork) = Pepsinogen (pork) (pork, UniProt P00791 16-385); experiment: MSD specificity profiling, coated protein
Method: as §1

Fibrinogen (bovine) = target: T1, Fibrinogen (bovine) (bovine, UniProt P02672 20-615; P02676 1-468; P12799 25-444); experiment: MSD specificity profiling, coated protein
T1 sequence (looked up) 1: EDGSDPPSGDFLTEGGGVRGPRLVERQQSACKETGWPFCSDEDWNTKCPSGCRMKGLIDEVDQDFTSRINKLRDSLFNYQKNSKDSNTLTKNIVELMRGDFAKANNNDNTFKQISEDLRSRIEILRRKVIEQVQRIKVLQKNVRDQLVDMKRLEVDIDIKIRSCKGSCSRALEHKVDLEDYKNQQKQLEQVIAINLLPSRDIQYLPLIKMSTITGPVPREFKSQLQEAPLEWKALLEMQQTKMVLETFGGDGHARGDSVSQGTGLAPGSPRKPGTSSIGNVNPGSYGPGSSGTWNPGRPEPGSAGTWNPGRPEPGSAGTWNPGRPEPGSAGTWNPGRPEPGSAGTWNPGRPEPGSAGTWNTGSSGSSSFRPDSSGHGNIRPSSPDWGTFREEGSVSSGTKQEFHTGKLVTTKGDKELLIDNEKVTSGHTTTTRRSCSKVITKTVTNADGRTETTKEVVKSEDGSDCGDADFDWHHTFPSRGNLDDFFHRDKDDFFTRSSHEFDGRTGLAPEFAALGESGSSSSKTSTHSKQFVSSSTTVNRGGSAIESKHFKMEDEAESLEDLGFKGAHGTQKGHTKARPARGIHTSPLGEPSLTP
T1 sequence (looked up) 2: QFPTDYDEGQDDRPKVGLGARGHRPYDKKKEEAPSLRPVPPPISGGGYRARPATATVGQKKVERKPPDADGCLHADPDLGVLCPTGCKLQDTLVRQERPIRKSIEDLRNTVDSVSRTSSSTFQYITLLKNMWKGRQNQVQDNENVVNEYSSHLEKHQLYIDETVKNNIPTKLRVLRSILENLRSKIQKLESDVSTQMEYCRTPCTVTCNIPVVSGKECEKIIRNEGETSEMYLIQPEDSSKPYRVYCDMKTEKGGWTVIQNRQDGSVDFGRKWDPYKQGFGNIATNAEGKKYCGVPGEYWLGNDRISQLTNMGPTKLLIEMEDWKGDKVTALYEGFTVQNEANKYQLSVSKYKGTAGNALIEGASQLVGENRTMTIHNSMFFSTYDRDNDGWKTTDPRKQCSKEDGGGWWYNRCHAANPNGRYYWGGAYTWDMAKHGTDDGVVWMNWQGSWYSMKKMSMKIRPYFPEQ
T1 sequence (looked up) 3: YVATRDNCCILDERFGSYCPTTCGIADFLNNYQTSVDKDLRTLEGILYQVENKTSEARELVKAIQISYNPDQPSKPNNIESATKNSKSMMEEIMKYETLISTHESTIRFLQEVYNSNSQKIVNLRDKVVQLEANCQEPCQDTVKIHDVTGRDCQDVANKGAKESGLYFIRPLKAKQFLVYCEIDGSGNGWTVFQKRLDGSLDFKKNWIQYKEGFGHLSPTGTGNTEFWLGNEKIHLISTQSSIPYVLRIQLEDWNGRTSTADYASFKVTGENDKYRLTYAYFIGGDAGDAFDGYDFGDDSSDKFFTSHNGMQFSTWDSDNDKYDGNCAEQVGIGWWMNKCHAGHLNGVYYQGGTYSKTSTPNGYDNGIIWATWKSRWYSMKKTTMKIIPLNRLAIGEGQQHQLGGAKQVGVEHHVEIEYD
Method: as §1

RNase B (cow) [1] = target: T2, RNase B (cow) (cow, UniProt P61823 27-150); experiment: MSD specificity profiling, coated protein
T2 sequence (looked up): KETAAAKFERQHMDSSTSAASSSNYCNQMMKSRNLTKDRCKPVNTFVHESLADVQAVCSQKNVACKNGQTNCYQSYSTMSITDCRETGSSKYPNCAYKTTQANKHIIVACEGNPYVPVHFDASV
Method: as §1

Antitrypsin (human) [2] = target: T3, Antitrypsin (human) (human, UniProt P01009 25-418); experiment: MSD specificity profiling, coated protein
Method: as §1

Transferrin (bovine) = Transferrin (bovine) (bovine, UniProt Q29443 20-704); experiment: MSD specificity profiling, coated protein
Method: as §1

[3] = target: T4, Recombinant cynomolgus monkey sgM-CSF (cynomolgus (Macaca fascicularis), UniProt P09603 33-255 (human entry), limits assumed); experiment: Table 12 summary, criterion Binding, Cynomolgus M-CSF; assay and antibody format not named there
T4 construct: used also where only 'cynomolgus M-CSF' is printed (ELISA result, SET); also called cynomolgus sgM-CSF; cyno sgM-CSF
T4 chain: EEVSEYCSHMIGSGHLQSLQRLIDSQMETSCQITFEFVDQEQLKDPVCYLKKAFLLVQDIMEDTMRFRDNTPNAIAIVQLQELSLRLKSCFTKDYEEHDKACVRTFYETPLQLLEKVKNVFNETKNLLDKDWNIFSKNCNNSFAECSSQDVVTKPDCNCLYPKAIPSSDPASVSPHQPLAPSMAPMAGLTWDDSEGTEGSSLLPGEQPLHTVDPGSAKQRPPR

Cytokine 1 (human) = Cytokine 1 (human) (human); experiment: MSD specificity profiling, coated protein, Camille at 10 nM
Method: as §1

RNase B (cow) [4] = target: T2, RNase B (cow); experiment: as above
Method: as §1

Antitrypsin (human) [5] = target: T3, Antitrypsin (human); experiment: as above
Method: as §1

[6] = target: Cell surface receptor 3 (human) (human); experiment: as above
Method: as §1

RNase A (cow) = target: T5, RNase A (cow) (cow, UniProt P61823 27-150); experiment: as above
T5 sequence (looked up): T2 sequence (looked up)
Method: as §1

T3 sequence (P01009 25-418 limits assumed): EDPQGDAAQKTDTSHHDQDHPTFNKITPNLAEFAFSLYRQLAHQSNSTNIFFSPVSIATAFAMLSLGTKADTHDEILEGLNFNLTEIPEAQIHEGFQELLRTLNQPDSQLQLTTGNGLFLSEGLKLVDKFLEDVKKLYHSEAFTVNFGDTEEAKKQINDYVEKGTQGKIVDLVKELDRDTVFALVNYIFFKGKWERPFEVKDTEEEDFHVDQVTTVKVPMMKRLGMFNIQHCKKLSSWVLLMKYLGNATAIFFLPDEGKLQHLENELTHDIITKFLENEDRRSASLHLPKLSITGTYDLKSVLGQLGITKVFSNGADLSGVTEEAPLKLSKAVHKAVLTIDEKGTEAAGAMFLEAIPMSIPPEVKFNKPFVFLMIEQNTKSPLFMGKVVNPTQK
Pepsinogen (pork), sequence (P00791 16-385): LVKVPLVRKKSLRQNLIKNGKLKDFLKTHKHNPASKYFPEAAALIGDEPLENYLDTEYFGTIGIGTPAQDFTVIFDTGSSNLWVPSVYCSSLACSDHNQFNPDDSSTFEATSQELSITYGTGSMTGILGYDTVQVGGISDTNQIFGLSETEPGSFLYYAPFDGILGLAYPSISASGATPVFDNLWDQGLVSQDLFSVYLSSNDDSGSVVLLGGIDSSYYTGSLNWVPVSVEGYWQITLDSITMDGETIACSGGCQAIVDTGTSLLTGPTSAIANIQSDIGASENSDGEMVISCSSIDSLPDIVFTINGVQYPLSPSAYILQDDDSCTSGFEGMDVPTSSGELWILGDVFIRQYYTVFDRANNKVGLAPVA
Lysozyme (chicken), sequence (P00698 19-147): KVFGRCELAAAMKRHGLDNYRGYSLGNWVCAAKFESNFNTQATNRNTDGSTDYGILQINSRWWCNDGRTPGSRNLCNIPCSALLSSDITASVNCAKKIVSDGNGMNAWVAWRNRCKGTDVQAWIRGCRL
Transferrin (bovine), sequence (Q29443 20-704 limits assumed): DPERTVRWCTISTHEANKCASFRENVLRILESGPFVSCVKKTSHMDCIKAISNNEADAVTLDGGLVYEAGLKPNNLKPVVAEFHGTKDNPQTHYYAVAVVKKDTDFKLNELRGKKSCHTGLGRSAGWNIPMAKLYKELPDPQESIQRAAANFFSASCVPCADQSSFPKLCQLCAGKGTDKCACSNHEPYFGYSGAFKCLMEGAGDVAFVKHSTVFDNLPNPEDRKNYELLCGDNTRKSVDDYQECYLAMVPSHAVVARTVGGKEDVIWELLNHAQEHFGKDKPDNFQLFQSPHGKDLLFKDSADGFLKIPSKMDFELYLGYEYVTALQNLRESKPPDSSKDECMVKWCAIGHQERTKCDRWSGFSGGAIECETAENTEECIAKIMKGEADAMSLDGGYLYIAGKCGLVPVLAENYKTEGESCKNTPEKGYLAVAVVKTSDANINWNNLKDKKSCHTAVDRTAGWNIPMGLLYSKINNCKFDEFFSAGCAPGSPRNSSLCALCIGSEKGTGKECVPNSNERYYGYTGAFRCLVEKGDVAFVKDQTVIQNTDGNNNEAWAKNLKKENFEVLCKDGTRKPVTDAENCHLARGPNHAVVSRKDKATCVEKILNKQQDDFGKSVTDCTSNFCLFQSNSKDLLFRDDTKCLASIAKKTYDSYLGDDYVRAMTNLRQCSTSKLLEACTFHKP

B1: Camille (format not stated) (antibody, V domains shown)
VH: QVQLQQSGPGLVKPSQTLSLTCAISGESVSTSSAAWNWIRQSPSRGLEWLGRTYYRSKWKHEYAVSVKSRITINPDTSKNQFSLQLNSVTPEDTAVYYCARDRYYYSAFDYWGQGTLVTVSS
VL: QSALTQPASVSGSPGQSITISCTGTSSDVGGYNSVSWYQQHPGKAPKLLIYAVSNRPSGVSNRFSGSKSGNTASLTISGLQAEDEADYYCASYDERFTRVFGGGTKLTVLG
notes: also called Antibody Camille
B1: no binding (tested: 100 nM and 10 nM antibody) (Lysozyme (chicken)); no binding (tested: 100 nM and 10 nM antibody) (Pepsinogen (pork)); no binding (tested: 100 nM and 10 nM antibody) (Fibrinogen (bovine)). B1: no binding (tested: 100 nM and 10 nM antibody) (RNase B (cow) [1]); no binding (tested: 100 nM and 10 nM antibody) (Antitrypsin (human) [2]); no binding (tested: 100 nM and 10 nM antibody) (Transferrin (bovine)). The Kd [3] was 0.025 nM, the “signal normalized to reference antibody MOR03207” value (from here on “signal normalized”) (Cytokine 1 (human)) was 1 ratio and the “signal normalized” value (RNase B (cow) [4]) was 1 ratio. For the same binder, the “signal normalized” value (Antitrypsin (human) [5]) was 1 ratio, the “signal normalized” value [6] was 1 ratio and the “signal normalized” value (RNase A (cow)) was 1 ratio.
